According to the supplement of paper PMC10567573:

B1: INTS3 (parent)
chain: FSDDEEDLNSKGKKREFRFHPIKE
B2: SNAP91 (parent)
chain: FAAPSPATTASPAKVDSSGVIDLF

Variants of: B1
Experiment: protein stability index of a GFP-peptide fusion (GPS, HEK-293T) (PSI 1-6); higher = more stable
Conditions: c terminus: a fixed tail appended
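Also: lentivirally expressed fusions sorted by FACS into six bins by GFP to DsRed ratio, PSI derived from sequencing read proportions per bin multiplied by bin number.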

Row | Variant | protein stability index
1 | FSDDEFDLNSKGKKREFRFHPIKE [E6F] | 2.13
2 | FSDDETDLNSKGKKREFRFHPIKE [E6T] | 3.08
3 | FSDDEYDLNSKGKKREFRFHPIKE [E6Y] | 2.24
4 | FSDDEIDLNSKGKKREFRFHPIKE [E6I] | 2.27
5 | FSDDEEDLNSHGKKREFRFHPIKE [K11H] | 3.13
6 | FSDDEEDLNSNGKKREFRFHPIKE [K11N] | 3.44
7 | FSDDEEDLNSCGKKREFRFHPIKE [K11C] | 2.99
8 | FSDDEEDLNSRGKKREFRFHPIKE [K11R] | 3.2
9 | FSDDEEDLNSKEKKREFRFHPIKE [G12E] | 3.02
10 | FSDDEEDLNSKAKKREFRFHPIKE [G12A] | 2.67
11 | FSDDEEDLNSKWKKREFRFHPIKE [G12W] | 2.11
12 | FSDDEEDLNSKKKKREFRFHPIKE [G12K] | 1.98
13 | FSDDEEDLNSKDKKREFRFHPIKE [G12D] | 2.92
14 | FSDDEEDLNSKGKKREVRFHPIKE [F17V] | 4.85
15 | FSDDEEDLNSKGKKREHRFHPIKE [F17H] | 5.01
16 | FSDDEEDLNSKGKKRENRFHPIKE [F17N] | 5.01
17 | FSDDEEDLNSKGKKREYRFHPIKE [F17Y] | 4.35
18 | FSDDEEDLNSKGKKRESRFHPIKE [F17S] | 5.44

Variants of: B2
Experiment: as above
Conditions: c terminus: a fixed tail appended

Row | Variant | protein stability index
19 | FAIPSPATTASPAKVDSSGVIDLF [A3I] | 2.28
20 | FAFPSPATTASPAKVDSSGVIDLF [A3F] | 1.62
21 | FANPSPATTASPAKVDSSGVIDLF [A3N] | 1.86
22 | FACPSPATTASPAKVDSSGVIDLF [A3C] | 1.99
23 | FADPSPATTASPAKVDSSGVIDLF [A3D] | 2.29
24 | FAKPSPATTASPAKVDSSGVIDLF [A3K] | 2.38
25 | FATPSPATTASPAKVDSSGVIDLF [A3T] | 2.6
26 | FAQPSPATTASPAKVDSSGVIDLF [A3Q] | 2.31
27 | FAWPSPATTASPAKVDSSGVIDLF [A3W] | 2.09
28 | FAMPSPATTASPAKVDSSGVIDLF [A3M] | 1.92
29 | FASPSPATTASPAKVDSSGVIDLF [A3S] | 2.61
30 | FAHPSPATTASPAKVDSSGVIDLF [A3H] | 2.23
31 | FAYPSPATTASPAKVDSSGVIDLF [A3Y] | 1.79
32 | FALPSPATTASPAKVDSSGVIDLF [A3L] | 2.33
33 | FAVPSPATTASPAKVDSSGVIDLF [A3V] | 2.46
34 | FARPSPATTASPAKVDSSGVIDLF [A3R] | 2.12
35 | FAPPSPATTASPAKVDSSGVIDLF [A3P] | 2.44
36 | FAEPSPATTASPAKVDSSGVIDLF [A3E] | 2.17
37 | FAGPSPATTASPAKVDSSGVIDLF [A3G] | 2.32
38 | GAAPSPATTASPAKVDSSGVIDLF [F1G] | 4.43
39 | HAAPSPATTASPAKVDSSGVIDLF [F1H] | 3.86
40 | VAAPSPATTASPAKVDSSGVIDLF [F1V] | 3.9
41 | EAAPSPATTASPAKVDSSGVIDLF [F1E] | 4.39
42 | LAAPSPATTASPAKVDSSGVIDLF [F1L] | 3.4
43 | TAAPSPATTASPAKVDSSGVIDLF [F1T] | 4.13
44 | QAAPSPATTASPAKVDSSGVIDLF [F1Q] | 4.28

Row | Variant | protein stability index
45 | KAAPSPATTASPAKVDSSGVIDLF [F1K] | 4.14
46 | RAAPSPATTASPAKVDSSGVIDLF [F1R] | 2.94
47 | DAAPSPATTASPAKVDSSGVIDLF [F1D] | 4.3
48 | CAAPSPATTASPAKVDSSGVIDLF [F1C] | 3.82
49 | IAAPSPATTASPAKVDSSGVIDLF [F1I] | 3.47
50 | YAAPSPATTASPAKVDSSGVIDLF [F1Y] | 2.3
51 | MAAPSPATTASPAKVDSSGVIDLF [F1M] | 3.76
52 | AAAPSPATTASPAKVDSSGVIDLF [F1A] | 3.95
53 | WAAPSPATTASPAKVDSSGVIDLF [F1W] | 3.01
54 | NAAPSPATTASPAKVDSSGVIDLF [F1N] | 3.79
55 | SAAPSPATTASPAKVDSSGVIDLF [F1S] | 3.56
56 | FAANSPATTASPAKVDSSGVIDLF [P4N] | 2.43
57 | FAARSPATTASPAKVDSSGVIDLF [P4R] | 2.12
58 | FAALSPATTASPAKVDSSGVIDLF [P4L] | 1.93
59 | FAAQSPATTASPAKVDSSGVIDLF [P4Q] | 2.2
60 | FAAWSPATTASPAKVDSSGVIDLF [P4W] | 1.76
61 | FAASSPATTASPAKVDSSGVIDLF [P4S] | 1.71
62 | FAAFSPATTASPAKVDSSGVIDLF [P4F] | 1.61
63 | FAACSPATTASPAKVDSSGVIDLF [P4C] | 1.56
64 | FAAGSPATTASPAKVDSSGVIDLF [P4G] | 1.95
65 | FAAKSPATTASPAKVDSSGVIDLF [P4K] | 2.08
66 | FAAVSPATTASPAKVDSSGVIDLF [P4V] | 2.13
67 | FAADSPATTASPAKVDSSGVIDLF [P4D] | 2.33
68 | FAAHSPATTASPAKVDSSGVIDLF [P4H] | 2.26
69 | FAAASPATTASPAKVDSSGVIDLF [P4A] | 1.79
70 | FAATSPATTASPAKVDSSGVIDLF [P4T] | 1.67

Row | Variant | protein stability index
71 | FAAISPATTASPAKVDSSGVIDLF [P4I] | 1.77
72 | FAAYSPATTASPAKVDSSGVIDLF [P4Y] | 1.38
73 | FAAMSPATTASPAKVDSSGVIDLF [P4M] | 2.18
74 | FAAESPATTASPAKVDSSGVIDLF [P4E] | 2.23
75 | FAAPAPATTASPAKVDSSGVIDLF [S5A] | 2.51
76 | FTAPSPATTASPAKVDSSGVIDLF [A2T] | 3.36
77 | FQAPSPATTASPAKVDSSGVIDLF [A2Q] | 2.17
78 | FDAPSPATTASPAKVDSSGVIDLF [A2D] | 3.57
79 | FEAPSPATTASPAKVDSSGVIDLF [A2E] | 4.29
80 | FYAPSPATTASPAKVDSSGVIDLF [A2Y] | 2.09
81 | FMAPSPATTASPAKVDSSGVIDLF [A2M] | 2.27
82 | FLAPSPATTASPAKVDSSGVIDLF [A2L] | 2.56
83 | FKAPSPATTASPAKVDSSGVIDLF [A2K] | 3.08
84 | FNAPSPATTASPAKVDSSGVIDLF [A2N] | 3.45
85 | FWAPSPATTASPAKVDSSGVIDLF [A2W] | 1.99
86 | FIAPSPATTASPAKVDSSGVIDLF [A2I] | 2.03
87 | FGAPSPATTASPAKVDSSGVIDLF [A2G] | 3.57
88 | FVAPSPATTASPAKVDSSGVIDLF [A2V] | 1.69
89 | FCAPSPATTASPAKVDSSGVIDLF [A2C] | 1.69
90 | FFAPSPATTASPAKVDSSGVIDLF [A2F] | 2.44
91 | FSAPSPATTASPAKVDSSGVIDLF [A2S] | 2.97
92 | FHAPSPATTASPAKVDSSGVIDLF [A2H] | 1.63
93 | FPAPSPATTASPAKVDSSGVIDLF [A2P] | 3.03
94 | FRAPSPATTASPAKVDSSGVIDLF [A2R] | 2.89
